# Experimental data reported in paper PMC5897841 (2017).
# T1: Aurora A_(D274N) kinase domain (human, UniProt O14965 122-403, D274N)
# T1 sequence: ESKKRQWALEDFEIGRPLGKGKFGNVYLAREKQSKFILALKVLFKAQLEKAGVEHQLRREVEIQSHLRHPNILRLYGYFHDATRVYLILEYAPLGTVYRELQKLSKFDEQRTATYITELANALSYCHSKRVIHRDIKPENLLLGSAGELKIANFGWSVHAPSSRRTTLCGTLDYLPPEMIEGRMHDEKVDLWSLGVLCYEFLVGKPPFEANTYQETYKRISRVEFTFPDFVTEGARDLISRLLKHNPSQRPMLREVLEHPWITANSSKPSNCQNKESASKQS
# B1: CK2α kinase (enzyme)
# chain: SGPVPSRARVYTDVNTHRPREYWDYESHVVEWGNQDDYQLVRKLGRGKYSEVFEAINITNNEKVVVKILKPVKKKKIKREIKILENLRGGPNIITLADIVKDPVSRTPALVFEHVNNTDFKQLYQTLTDYDIRFYMYEILKALDYCHSMGIMHRDVKPHNVMIDHEHRKLRLIDWGLAEFYHPGQEYNVRVASRYFKGPELLVDYQMYDYSLDMWSLGCMLASMIFRKEPFFHGHDNYDQLVRIAKVLGTEDLYDYIDKYNIELDPRFNDILGRHSRKRWERFVHSENQHLVSPEALDFLDKLLRYDHQSRLTAREAMEHPYFYTVVK
# B2: Aurora A wild-type kinase domain (untagged) (domain or fragment)
# chain: FEIGRPLGKGKFGNVYLAREKQSKFILALKVLFKAQLEKAGVEHQLRREVEIQSHLRHPNILRLYGYFHDATRVYLILEYAPLGTVYRELQKLSKFDEQRTATYITELANALSYCHSKRVIHRDIKPENLLLGSAGELKIADFGWSVHAPSSRRTTLCGTLDYLPPEMIEGRMHDEKVDLWSLGVLCYEFLVGKPPFEANTYQETYKRISRVEFTFPDFVTEGARDLISRLLKHNPSQRPMLREVLEHPWI
# Key:
# Experiment in all cases: ITC
# [1] = biological target: cRAD-CK2β_((186–200)) display protein (Pyrococcus furiosus | human, UniProt O74036 108-287; P67870 186-200; O74036 302-349, K144A)
# [2] = biological target: T1, Aurora A_(D274N) kinase domain
# CK2α kinase = biological target: B1
# [3] = biological target: T2, cRAD-TPX2_((7–43)) display protein (Pyrococcus furiosus | human, UniProt O74036 108-287; O74036 302-349, K144A)
# [4] = biological target: T2, cRAD-TPX2_((7–43)) display protein; remark: listed apart in the source
binder,measurement,setting,value
B1,Ka,[1],7.13e+06 M⁻¹
LSYSYDAPSDFINFSSLDDEGDTQNIDSWFEEKANLENLKGGGCQM [linear TPX2_((7–43)) peptide],Ka,[2],8.71e+06 M⁻¹
RLYGFKIHPMAYQLQ [synthetic linear CK2β_((186–200)) peptide],Ka,CK2α kinase,7.27e+06 M⁻¹
B2,Ka,[3],6.27e+07 M⁻¹
same,Kd,[4],15.9 nM
